Experimental data: US10227617B2, “Sequestration of carbon dioxide with hydrogen to useful products” (UNIVERSITY OF GEORGIA RESEARCH FOUNDATION, INC., priority 2012, dated 2019)
Entries after “also recorded” stand apart in the source; their conditions may differ.

What was measured:
P. furiosus cultures = assay: Stability of 3-HP added to P. furiosus cultures; type: cell-based, Pyrococcus furiosus
[1] = CoA synthetase assay (DTNB), substrate propionate; type: biochemical; details: saturating substrate concentrations
Protocol: (§2) Two assays were used to measure ligase activity, one spectrophotometric and one using high-performance liquid chromatography (HPLC). A discontinuous assay was used to measure substrate-dependent disappearance of CoA at 75° C. The reaction mixture (600 μl) contained 100 mM MOPS-KOH (pH 7.9), 5 mM MgCl2, 2.5 mM ATP, 0.15 mM CoA, and purified enzyme. At each time point, 80 μl of reaction mixture was added to 80 μl cold 5,5′-dithiobis-(2-nitrobenzoic acid) (DTNB). A time point (0 min) was taken before heating. The reaction mixture was incubated for 2 min at 75° C., followed by addition of substrate. Additional time points were taken at 30, 60, 90, 120, and 180 sec after addition of substrate. Absorbance was measured at 412 nm to determine free CoA concentration, based on the concentration of 2-nitro-5-thiobenzoate dianion (NTB^2−) (ε412=14,150 M^−1 cm^−1) (Hawkins et al., 2011, ACS Catal. 1, 1043-1050, Riddles et al., 1983, Methods in Enzymology 91, 49-60). Enzymes were kinetically characterized by varying the concentration of the acyl-CoA substrate from 0.05 mM to 12 mM, while the other substrate concentrations were held constant. Measurements for specific activity were taken under saturating substrate concentrations (10 mM). Formation of the CoA ester was also confirmed using HPLC (Waters). […]

[2] = Ligase activity over a range of short-chain linear organic acids; type: biochemical
Protocol: (§1) Two assays were used to measure ligase activity, one spectrophotometric and one using high-performance liquid chromatography (HPLC). A discontinuous assay was used to measure substrate-dependent disappearance of CoA at 75° C. The reaction mixture (600 μl) contained 100 mM MOPS-KOH (pH 7.9), 5 mM MgCl2, 2.5 mM ATP, 0.15 mM CoA, and purified enzyme. At each time point, 80 μl of reaction mixture was added to 80 μl cold 5,5′-dithiobis-(2-nitrobenzoic acid) (DTNB). A time point (0 min) was taken before heating. The reaction mixture was incubated for 2 min at 75° C., followed by addition of substrate. Additional time points were taken at 30, 60, 90, 120, and 180 sec after addition of substrate. Absorbance was measured at 412 nm to determine free CoA concentration, based on the concentration of 2-nitro-5-thiobenzoate dianion (NTB^2−) (ε412=14,150 M^−1 cm^−1) (Hawkins et al., 2011, ACS Catal. 1, 1043-1050, Riddles et al., 1983, Methods in Enzymology 91, 49-60). Enzymes were kinetically characterized by varying the concentration of the […] substrate from 0.05 mM to 12 mM, while the other substrate concentrations were held constant. Measurements for specific activity were taken under saturating substrate concentrations (10 mM). Formation of the CoA ester was also confirmed using HPLC (Waters). […]

[3] = 4-hydroxybutyrate-CoA synthetase assay (DTNB; HPLC confirmation); type: biochemical
Protocol: A time point (0 min) was taken before heating.
The soluble, heat-treated lysate was loaded onto the column with binding buffer (50 mM sodium phosphate, 300 mM NaCl, 20 mM imidazole, pH 7.4) and the his-tagged enzyme removed with elution buffer (50 mM sodium phosphate, 300 mM NaCl, 500 mM imidazole, pH 7.4).

[4] = CoA synthetase (acyl-CoA ligase) assay, disappearance of CoA (DTNB), substrate acetate; type: biochemical; details: saturating substrate concentrations
Protocol: as §2

[5] = CoA synthetase assay, substrate hexanoic acid; type: biochemical; details: six carbon hexanoic acid
Protocol: as §1

E9 = molecular target: T1, E9 (Metallosphaera sedula, UniProt A4YGN0); assay: NADPH-dependent assay for E9 in cell-free extracts; type: biochemical
T1 construct: expressed in transfected cells; host or cells: Pyrococcus furiosus strain MW43 (SP2B operon integrated at genome region 2); cell-free extract
T1 sequence (A4YGN0 1-360): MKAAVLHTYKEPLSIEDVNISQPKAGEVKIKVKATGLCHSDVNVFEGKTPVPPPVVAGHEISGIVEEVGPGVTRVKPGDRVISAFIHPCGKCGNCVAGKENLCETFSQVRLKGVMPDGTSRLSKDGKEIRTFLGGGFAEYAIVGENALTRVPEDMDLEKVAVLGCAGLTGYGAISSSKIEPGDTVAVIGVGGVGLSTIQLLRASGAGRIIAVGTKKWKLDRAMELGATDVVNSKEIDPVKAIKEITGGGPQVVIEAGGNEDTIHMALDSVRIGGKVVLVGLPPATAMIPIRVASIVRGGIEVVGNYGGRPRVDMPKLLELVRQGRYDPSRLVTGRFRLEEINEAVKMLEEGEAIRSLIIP
Protocol: NADPH-dependent assay for E9 of the SP2B subpathway (FIG. 36). Assays were carried out in sealed anaerobic cuvettes at 75° C. containing 100 mM MOPS pH 7.5 (measured at room temperature), 5 mM MgCl2, 5 mM DTT, 1 mM NADPH and the cell-free extract of P. furiosus (0.25 mg/ml). After addition of 1 mM succinic semialdehyde, NADPH oxidation was determined by the absorbance at 340 nm and rates were calculated based on the difference before and after the addition of the succinic semialdehyde.

## O=C(O)CCO [3-HP, 3-hydroxypropionic acid]
P. furiosus cultures
  stability when added to P. furiosus cultures: stable

B1: Msed_1353-G424: single substitution mutant (Trp424 to Gly) of acetate/propionate synthetase Msed_1353, SEQ ID NO:18 (protein, listed as Metallosphaera sedula)
chain: MSQPENESGLPFQEKVVPELLKHRLVTPEEYLRIHKKTVENYQEYWESVAKELDWFKPWEKALDDSHPPFYKWFVGGELNASYLAVDRHANSWRRNKVAIIWEGEPWENGPKEVRKLTYLDLYREVNRAAYLLKEVYGLKKGDTIGIYLPMIPELPIFMLAAARLGVAFTVVFSGFSAQAVADRMNDADTKLLITADGGWRRGKVIPLKEIVDKALETATTVKNVLVVRRTGTEISMKPGRDAYLHDVMSKVPIKAYVEPERVKSEDPLYILYTSGTTGKPKGIIHDTGGYMTLLHNTMKLVFDIRDTDVFWCTADIGWVTGHSYIVFGPLQEGATEVMYEGALDFPEPDRWVSIIERHQVSILYTSPTAIRTFMKQGEQWIKKHDVSSVRLMHSVGEPINPEAWRWFHKLVGRGQVPFGSTWGMTETGGIMISHMPGGYLVPMKPGTNGPPLLGIETNVFDEEGKPMPEEQKGYLVITKPWPGMPLTINKDPERYVKVYWNKFPNVFYAGDYAIKDRDGYFWILGRADEVMKIAGHRIGTYELESALVQHPAIAEAAVVGVPDPVRGEVAEAFVILRSGVEPSAKLREEIVKFVRENFGPIAVFREIHFVSKLPKTRSGKIMRRVIKAVATNSPVGDVTTLEDEASVEEVKKAFQELKEQVGK
[1]
  specific activity: 3.5 µmol/min/mg
[2]
  substrates on which activity was shown: activity on C4-C8 substrates; also recorded: activity on 3HP, 4HB, valerate, hexanoate, and even octanoate
[2]; on acetate and propionate
  decrease of activity of mutant versus native enzyme: 60%
[3]; 4HB, saturating substrate concentrations
  specific activity: 1.8 µmol/min/mg
[4]
  specific activity: 3.6 µmol/min/mg

B2: Msed_0394: recombinant M. sedula enzyme with 4-hydroxybutyrate:CoA ligase activity, annotated AMP-dependent synthetase and ligase, SEQ ID NO:13 (protein, listed as Metallosphaera sedula)
chain: MGGFKIPNYEGVDPTGSWYSVLTPLLFLERAGKYFKDKTAVVYRDSRYTYSTFYDNVMVQASALMRRGFSREDKLSFISRNRPEFLESFFGVPYAGGVLVPINFRLSPKEMAYIINHSDSKFVVVDEPYLNSLLEVKDQIKAEIILLEDPDNPSASETARKEVRMTYRELVKGGSRDPLPIPAKEEYSMITLYYTSGTTGLPKGVMHHHRGAFLNAMAEVLEHQMDLNSVYLWTLPMFHAASWGFSWATVAVGATNVCLDKVDYPLIYRLVEKERVTHMCAAPTVYVNLADYMKRNNLKFSNRVHMLVAGAAPAPATLKAMQEIGGYMCHVYGLTETYGPHSICEWRREWDSLPLEEQAKLKARQGIPYVSFEMDVFDANGKPVPWDGKTIGEVVMRGHNVALGYYKNPEKTAESFRDGWFHSGDAAVVHPDGYIEIVDRFKDLINTGGEKVSSILVEKTLMEIPGVKAVAVYGTPDEKWGEVVTARIELQEGVKLTEEEVIKFCKERLAHFECPKIVEFGPIPMTATGKMQKYVLRNEAKAKANKEKS
[5]
  activity with hexanoic acid: No activity
[3]; reversed-phase HPLC
  production of 4HB-CoA from 4HB and CoA: confirmed
[3]; substrate 4HB
  rate of ligation of CoA to 4HB: 0.22 µmol·min/mg

B3: E9: M. sedula succinate semialdehyde reductase, SEQ ID NO:12, in extracts of strain MW43 (protein, listed as Metallosphaera sedula)
chain: MKAAVLHTYKEPLSIEDVNISQPKAGEVKIKVKATGLCHSDVNVFEGKTPVPPPVVAGHEISGIVEEVGPGVTRVKPGDRVISAFIHPCGKCGNCVAGKENLCETFSQVRLKGVMPDGTSRLSKDGKEIRTFLGGGFAEYAIVGENALTRVPEDMDLEKVAVLGCAGLTGYGAISSSKIEPGDTVAVIGVGGVGLSTIQLLRASGAGRIIAVGTKKWKLDRAMELGATDVVNSKEIDPVKAIKEITGGGPQVVIEAGGNEDTIHMALDSVRIGGKVVLVGLPPATAMIPIRVASIVRGGIEVVGNYGGRPRVDMPKLLELVRQGRYDPSRLVTGRFRLEEINEAVKMLEEGEAIRSLIIP
E9; at 90° C, cell-free extracts
  half-life of E9: ~30 min
E9; cell extracts
  assay temperature of maximum E9 activity: above 80 °C
